Non-standard residues stand in square brackets, D forms with d. No end group written: not given here. Phe(3-Me) = Cc1cccc(C[C@H](N)C(=O)O)c1; Phe(2-Me) = Cc1ccccc1C[C@H](N)C(=O)O; tBuAla = CC(C)(C)C[C@H](N)C(=O)O; 4Pal = N[C@@H](Cc1ccncc1)C(=O)O; Cha = N[C@@H](CC1CCCCC1)C(=O)O; 4Amb = NCc1ccc(C(=O)O)cc1; Abu = CC[C@H](N)C(=O)O; Aib = CC(C)(N)C(=O)O; Ahx = NCCCCCC(=O)O
What was measured:
[1] = target: T1, human Y2 receptor (human, UniProt P49146 1-381); test: RBA: displacement of [125I]-PYY from hY2R/CHO membranes
T1 construct: whole, on cells; used as membrane fraction of CHO/dhfr- cells stably expressing hY2R; also called hY2R; human NPY2R
T1 sequence (looked up): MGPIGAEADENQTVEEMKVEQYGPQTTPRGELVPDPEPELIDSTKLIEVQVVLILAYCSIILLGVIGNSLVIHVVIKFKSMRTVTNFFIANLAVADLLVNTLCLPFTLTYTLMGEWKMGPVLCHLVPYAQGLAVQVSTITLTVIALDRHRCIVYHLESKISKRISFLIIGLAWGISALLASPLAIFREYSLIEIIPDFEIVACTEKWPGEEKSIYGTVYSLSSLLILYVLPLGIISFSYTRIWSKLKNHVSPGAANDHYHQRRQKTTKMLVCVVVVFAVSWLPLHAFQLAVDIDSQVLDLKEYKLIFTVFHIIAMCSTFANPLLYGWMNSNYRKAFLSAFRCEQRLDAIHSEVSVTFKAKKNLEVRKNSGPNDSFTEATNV
Protocol: After incubation at room temperature for 60 minutes, the mixture was filtered through the cell harvester FilterMate (PerkinElmer) using UniFilter-96 GF/C treated with polyethylenimine (PEI) solution (20 mM Tris, 0.3% PEI, pH 7.4), and the filter was washed 3 times with a filtering buffer (50 mM Tris, 5 mM MgCl₂, 150 mM NaCl, 0.03% NaN₃, 0.05% CHAPS, pH 7.4). Thereafter, UniFilter-96 GF/C was dried in a mechanical drier for 1 hour, 15 μl of the liquid scintillator MicroScint O (PerkinElmer) was added to each well, and a measurement was taken using TopCount (PerkinElmer). The data obtained were analyzed using Prism to calculate the IC₅₀ value.

[2] = target: T1, human Y2 receptor; test: cell-based or functional assay

Row | IC50 Ratio [1] | GBA EC50 Ratio ([35S]GTPγS binding) [2] | Binder
1 | 0.8 IC50 compound/IC50 PYY(3-36) | 0.86 EC50 compound/EC50 PYY(3-36) | Ac-S[dP]RH[Cha][tBuAla]NK[Aib]TRQR[Phe(2-Me)]-NH2 (SMILES CC(=O)N[C@@H](CO)C(=O)N1CCC[C@@H]1C(=O)N[C@@H](CCCNC(=N)N)C(=O)N[C@@H](Cc1c[nH]cn1)C(=O)N[C@@H](CC1CCCCC1)C(=O)N[C@@H](CC(C)(C)C)C(=O)N[C@@H](CC(N)=O)C(=O)N[C@@H](CCCCN)C(=O)NC(C)(C)C(=O)N[C@H](C(=O)N[C@@H](CCCNC(=N)N)C(=O)N[C@@H](CCC(N)=O)C(=O)N[C@@H](CCCNC(=N)N)C(=O)N[C@@H](Cc1ccccc1C)C(N)=O)[C@@H](C)O, also called compound No. 255) [Ac-[D-Pro24, Cha27, Leu(Me)28, Lys30, Aib31, Phe(2Me)36]-PYY(23-36)]
2 | 0.61 IC50 compound/IC50 PYY(3-36) | 0.78 EC50 compound/EC50 PYY(3-36) | Ac-S[dP]RH[Cha][tBuAla]NK[Aib]TRQR[Phe(3-Me)]-NH2 (SMILES CC(=O)N[C@@H](CO)C(=O)N1CCC[C@@H]1C(=O)N[C@@H](CCCNC(=N)N)C(=O)N[C@@H](Cc1c[nH]cn1)C(=O)N[C@@H](CC1CCCCC1)C(=O)N[C@@H](CC(C)(C)C)C(=O)N[C@@H](CC(N)=O)C(=O)N[C@@H](CCCCN)C(=O)NC(C)(C)C(=O)N[C@H](C(=O)N[C@@H](CCCNC(=N)N)C(=O)N[C@@H](CCC(N)=O)C(=O)N[C@@H](CCCNC(=N)N)C(=O)N[C@@H](Cc1cccc(C)c1)C(N)=O)[C@@H](C)O, also called compound No. 258) [Ac-[D-Pro24, Cha27, Leu(Me)28, Lys30, Aib31, Phe(3Me)36]-PYY(23-36)]
3 | 0.54 IC50 compound/IC50 PYY(3-36) | 0.81 EC50 compound/EC50 PYY(3-36) | Ac-R[dY]AS[dP]R[4Pal][Cha][Aib]NK[Aib]TRQR[Phe(2-Me)]-NH2 (SMILES CC(=O)N[C@@H](CCCNC(=N)N)C(=O)N[C@H](Cc1ccc(O)cc1)C(=O)N[C@@H](C)C(=O)N[C@@H](CO)C(=O)N1CCC[C@@H]1C(=O)N[C@@H](CCCNC(=N)N)C(=O)N[C@@H](Cc1ccncc1)C(=O)N[C@@H](CC1CCCCC1)C(=O)NC(C)(C)C(=O)N[C@@H](CC(N)=O)C(=O)N[C@@H](CCCCN)C(=O)NC(C)(C)C(=O)N[C@H](C(=O)N[C@@H](CCCNC(=N)N)C(=O)N[C@@H](CCC(N)=O)C(=O)N[C@@H](CCCNC(=N)N)C(=O)N[C@@H](Cc1ccccc1C)C(N)=O)[C@@H](C)O, also called compound No. 261) [Ac-[Arg20, D-Tyr21, D-Pro24, Pya(4)26, Cha27, Aib28,31, Lys30, Phe(2Me)36]-PYY(20-36)]
4 | 0.5 IC50 compound/IC50 PYY(3-36) | 1.7 EC50 compound/EC50 PYY(3-36) | Ac-R[dY]AS[dP]R[4Pal][Cha][Aib]NK[Aib]TRQR[Phe(3-Me)]-NH2 (SMILES CC(=O)N[C@@H](CCCNC(=N)N)C(=O)N[C@H](Cc1ccc(O)cc1)C(=O)N[C@@H](C)C(=O)N[C@@H](CO)C(=O)N1CCC[C@@H]1C(=O)N[C@@H](CCCNC(=N)N)C(=O)N[C@@H](Cc1ccncc1)C(=O)N[C@@H](CC1CCCCC1)C(=O)NC(C)(C)C(=O)N[C@@H](CC(N)=O)C(=O)N[C@@H](CCCCN)C(=O)NC(C)(C)C(=O)N[C@H](C(=O)N[C@@H](CCCNC(=N)N)C(=O)N[C@@H](CCC(N)=O)C(=O)N[C@@H](CCCNC(=N)N)C(=O)N[C@@H](Cc1cccc(C)c1)C(N)=O)[C@@H](C)O, also called compound No. 262) [Ac-[Arg20, D-Tyr21, D-Pro24, Pya(4)26, Cha27, Aib28,31, Lys30, Phe(3Me)36]-PYY(20-36)]
5 | 9.1 IC50 compound/IC50 PYY(3-36) | 4.8 EC50 compound/EC50 PYY(3-36) | IK[Ahx]RAYINLITRQRY-NH2 (N-terminus assumed; SMILES CC[C@H](C)[C@H](N)C(=O)N[C@@H](CCCCN)C(=O)NCCCCCC(=O)N[C@@H](CCCNC(=N)N)C(=O)N[C@@H](C)C(=O)N[C@@H](Cc1ccc(O)cc1)C(=O)N[C@H](C(=O)N[C@@H](CC(N)=O)C(=O)N[C@@H](CC(C)C)C(=O)N[C@H](C(=O)N[C@H](C(=O)N[C@@H](CCCNC(=N)N)C(=O)N[C@@H](CCC(N)=O)C(=O)N[C@@H](CCCNC(=N)N)C(=O)N[C@@H](Cc1ccc(O)cc1)C(N)=O)[C@@H](C)O)[C@@H](C)CC)[C@@H](C)CC, also called compound No. 353) [[Ile22,28,31, Lys23, Acp24, Ala26]-PYY(22-36)]
6 | 68 IC50 compound/IC50 PYY(3-36) | 33 EC50 compound/EC50 PYY(3-36) | [4Amb]RAYINLI[Abu]RQRY-NH2 (N-terminus assumed; SMILES CC[C@H](NC(=O)[C@@H](NC(=O)[C@H](CC(C)C)NC(=O)[C@H](CC(N)=O)NC(=O)[C@@H](NC(=O)[C@H](Cc1ccc(O)cc1)NC(=O)[C@H](C)NC(=O)[C@H](CCCNC(=N)N)NC(=O)c1ccc(CN)cc1)[C@@H](C)CC)[C@@H](C)CC)C(=O)N[C@@H](CCCNC(=N)N)C(=O)N[C@@H](CCC(N)=O)C(=O)N[C@@H](CCCNC(=N)N)C(=O)N[C@@H](Cc1ccc(O)cc1)C(N)=O, also called compound No. 354) [4-Aminomethylbenzoyl-[Ala26, ILe28,31, Abu32]-PYY(25-36)]
7 | 1.4 IC50 compound/IC50 PYY(3-36) | 1.1 EC50 compound/EC50 PYY(3-36) | Ac-Y[dY]AS[dP]RH[Cha][Cha]NL[Aib]TRQR[Cha]-NH2 (SMILES CC(=O)N[C@@H](Cc1ccc(O)cc1)C(=O)N[C@H](Cc1ccc(O)cc1)C(=O)N[C@@H](C)C(=O)N[C@@H](CO)C(=O)N1CCC[C@@H]1C(=O)N[C@@H](CCCNC(=N)N)C(=O)N[C@@H](Cc1c[nH]cn1)C(=O)N[C@@H](CC1CCCCC1)C(=O)N[C@@H](CC1CCCCC1)C(=O)N[C@@H](CC(N)=O)C(=O)N[C@@H](CC(C)C)C(=O)NC(C)(C)C(=O)N[C@H](C(=O)N[C@@H](CCCNC(=N)N)C(=O)N[C@@H](CCC(N)=O)C(=O)N[C@@H](CCCNC(=N)N)C(=O)N[C@@H](CC1CCCCC1)C(N)=O)[C@@H](C)O, also called compound No. 355) [Ac-[D-Tyr21, D-Pro24, Cha27,28,36, Aib31]-PYY(20-36)]

Source: patent US20120172293A1 (Takeda / Millennium, published 2012)
